The test system of one test is Nur77 mRNA. Description: Nur77 (NR4A1) mRNA by real-time RT-PCR in human monocyte-derived macrophages. Format: cell-based.
The subject of the next test is Nur77 protein. Description: Nur77 protein staining in primary human monocyte-derived macrophages. Particulars: at 24 hours, Gal-3BP 10 μg/ml. The test is classed as cell-based.

B1: Gal-3BP: recombinant human galectin-3 binding protein (R&D) (protein, UniProt Q08380 19-585, looked up)
Galectin-3-binding protein: VNDGDMRLADGGATNQGRVEIFYRGQWGTVCDNLWDLTDASVVCRALGFENATQALGRAAFGQGSGPIMLDEVQCTGTEASLADCKSLGWLKSNCRHERDAGVVCTNETRSTHTLDLSRELSEALGQIFDSQRGCDLSISVNVQGEDALGFCGHTVILTANLEAQALWKEPGSNVTMSVDAECVPMVRDLLRYFYSRRIDITLSSVKCFHKLASAYGARQLQGYCASLFAILLPQDPSFQMPLDLYAYAVATGDALLEKLCLQFLAWNFEALTQAEAWPSVPTDLLQLLLPRSDLAVPSELALLKAVDTWSWGERASHEEVEGLVEKIRFPMMLPEELFELQFNLSLYWSHEALFQKKTLQALEFHTVPFQLLARYKGLNLTEDTYKPRIYTSPTWSAFVTDSSWSARKSQLVYQSRRGPLVKYSSDYFQAPSDYRYYPYQSFQTPQHPSFLFQDKRVSWSLVYLPTIQSCWNYGFSCSSDELPVLGLTKSGGSDRTIAYENKALMLCEGLFVADVTDFEGWKAAIPSALDTNSSKSTSSFPCPAGHFNGFRTVIRPFYLTNSSGVD
On to B1, for which, in the test on Nur77 mRNA (M-CSF-derived human macrophages (M0), Gal-3BP 10 μg/ml), the “time of peak Nur77 mRNA expression after addition” value was 48 h. In the test with Nur77 mRNA (M-CSF-derived human macrophages (M0), Gal-3BP 10 μg/ml, 0-72 hours, two independent studies), the “NUR77 mRNA increase” value is 3-4 fold. Moreover, in the test on Nur77 mRNA (human primary macrophages, 6 hours after Gal-3BP, normalized to t=0, n=3), the NR4A1 expression induction entry is on record as “more than 6 fold”. In addition, in the test on Nur77 protein, the “Nur77 protein compared to control” value was “massively increased”.

Values taken from patent US20130108602A1, “METHODS AND USES OF NUR77 AND NUR77 AGONISTS TO MODULATE MACROPHAGES AND MONOCYTES, AND TREAT INFLAMMATION, INFLAMMATORY DISEASE AND CARDIOVASCULAR DISEASE” (LA JOLLA INSTITUTE FOR ALLERGY AND IMMUNOLOGY, priority 2010, published 2013).
